The nature of the data set: soluble on expression in E. coli; label from the status in PepcDB or PDB records.
Consider “MSLTRFSVSPGDPMKKFVTLALTLSTLGASVASAQAVRVGMAYDAGGKADKSFNQSAYEGSQLAAKKLGIQVKDFEPSDPSQIIQGVRSFAKEGFDLTIGVGFSNNASITQVAKENPDLYFGLVDDVSTAKNVASLVFNEEQGSYLVGYLAAMNSSTGVVGFIGGMNIPLIHKFEAGYRAGVKAANPKATIISQYVGNTPEAWNNPGKAKEIAANMRGRGADIIFAAAGGSGNGLIDYIKQTPCLNASQLPKGVTFKSDNFKNVKKSAAYAKACTGNTRPMFFIGVDSNQNYLGDFDKNPATLNHGLTSMVKRVDNAVYALINEVKNDKFKAGERRFGLKDGGVAYAVDQYNKALLPAAQIAKVEAVKQQIIKGQIKVPTKEGGSHHHHHH”, for which the “soluble on expression in E. coli” value is “soluble”.

Take “MSLTRGEARRPPQEFDRVLSSMCTTPHPAAREAAQAFLATNPGDPETYPAVAERERDAVALLGEIVGLSSPHGYIAAGGTEANLQAVRAARNRADADAVNVVAPASAHFSFQKAADVLGVELRLAPTDGDHRADVAAVADLVDGDTAVVVGVAGTTEYGRVDPIPALADIAAGVDANLHVDAAWGGFVLPFTDHDWSFADAPVNTMAIDPHKMGQAPVPAGGFLARDPETLDALAIETPYLESDTQPTLGGTRSGAGVAGALASLRALWPDGYREQYERTQGNAEYLAAELAARGYDVVDPELPLVAADMPDAEFQALREEGWRISRTASDALRVVCMPHVTREMLAAFLDDVDALAEGHHHHHH”: the “soluble on expression in E. coli” value is “not soluble”.

Turning to “MSLTRLLIRDFRNIETADLALSPGFNFLVGANGSGKTSVLEAIYTLGHGRAFRSLQIGRVIRHEQEAFVLHGRLQGEERETAIGLTKDKQGDSKVRIDGTDGHKVAELAHLMPMQLITPEGFTLLNGGPKYRRAFLDWGCFHNEPGFFTAWSNLKRLLKQRNAALRQVTRYEQLRPWDKELIPLAEQISTWRAEYSAGIAADMADTCKQFLPEFSLTFSFQRGWEKETEYAEVLERNFERDRQLTYTAHGPHKADLRIRADGAPVEDTLSRGQLKLLMCALRLAQGEFLTRESGRRCLYLIDDFASELDDERRGLLASRLKATQSQVFVSAISAEHVIDMSDENSKMFTVEKGKITD”, the “soluble on expression in E. coli” value was “soluble”.

With “MSLTRRATSLLPPNATALERRLADTNARISDIPVDIGALMDPDAIPLRFLPWLAWHLGVETWKDYWPEQVKRARVKAAIRIARKKGTAAAVREVCASFGANVAMREWFEKTPKGRPGTFEILMTVGARDGIPATAEYVADIIAEVDRAKRGTAHYTFTQGFGATGTQRIGAGARVAVYRRLSLTDIEGHHHHHH”, the “soluble on expression in E. coli” value is “not soluble”.

Regarding “MSLTSAPCPFRVNRIDLRVLPMRTRFPFRYGIASLVALPHLFVTVELEVNGQSVIGRTSEGLPPKWFTKDPGTPNELEVAGMLAVIQNAVRLATLHGREPVTWYPLVRQLAAEQKLWASRHDHPPLLWNLGISLMERALLDALCQAWQEPLHAVLRGPALGIRWSELHPSLADDAVPPFLADPPASQLALRHTIGLADPLTAADIPSGEEVNDGLPHTLDDCIRAYGLRYFKIKLSGNLEADRHRLTSVASVIRQHASPDFSATLDGNENFQDLTAFREWFEALNSDPGLKDFMPHVLWIEQPLHRDSALNPELFDAFRNWPEAPRLIIDESDGESGALQTALELGYSGGSHKNCKGILKGLANAATLHAFRAAHPERDFILSGEDLANVGPIPLTQDLAMQALLGIPHVERNGHHYFRGLSMYPDGIGVSAATLAAHPDLYHQLPDGLATLNIREGFIAIDSVNQAPFGTPVAPPVDQLPTVKEWILQGGLGALEGEGHHHHHH”, the “soluble on expression in E. coli” value is “soluble”.

For “MSLTSTATDSPLKYYDIGLNLTDPMFHGIYNGKQYHPADYVKLLERAAQRHVKNALVTGSSIAESQSAIELVSSVKDLSPLKLYHTIGVHPCCVNEFADASQGDKASASIDNPSMDEAYNESLYAKVISNPSFAQGKLKELYDLMNQQAKPHDTSFRSIGEIGLDYDRFHYSSKEMQKVFFEEQLKISCLNDKLSSYPLFLHMRSACDDFVQILERFVVGFTDEKDTFQLQKLGASSSSGFYKFHPDRKLVVHSFTGSAIDLQKLLNLSPNIFIGVNGCSLRTEENLAVVKQIPTERLLLETDAPWCEIKRTHASFQYLAKYQEVRDFEYPAFKSVKKNKLADKLNAEELYMVKGRNEPCNMEQVAIVVSEVKDVDLATLIDTTWKTTCKIFGEGHHHHHH”, the “soluble on expression in E. coli” value was “soluble”.

“MSLTTFATEWEKQLELYPEEYRKAYRRVKRASEILLREPEPQVGLTPKEVIWTKNKTKLYRYIPKQEKTQRVPILLIYALINKPYIMDLTPGNSLVEYLVDRGFDVYMLDWGTFGLEDSHLKFDDFVFDYIAKAVKKVMRTAKSDEEGHHHHHH”: the “soluble on expression in E. coli” value is “not soluble”.

Consider “MSLTVKDILDAIQSPDSTPADIAALPLPESYRAITVHKDETEMFAGLETRDKDPRKSIHLDDVPVPELGPGEALVAVMASSVNYNSVWTSIFEPLSTFGFLERYGRVSDLAKRHDLPYHVIGSDLAGVVLRTGPGVNAWQAGDEVVAHCLSVELESSDGHNDTMLDPEQRIWGFETNFGGLAEIALVKSNQLMPKPDHLSWEEAAAPGLVNSTAYRQLVSRNGAGMKQGDNVLIWGASGGLGSYATQFALAGGANPICVVSSPQKAEICRAMGAEAIIDRNAEGYRFWKDENTQDPKEWKRFGKRIRELTGGEDIDIVFEHPGRETFGASVFVTRKGGTITTCASTSGYMHEYDNRYLWMSLKRIIGSHFANYREAWEANRLIAKGRIHPTLSKVYSLEDTGQAAYDVHRNLHQGKVGVLCLAPEEGLGVRDREKRAQHLDAINRFRNEGHHHHHH”, for which the “soluble on expression in E. coli” value was “soluble”.

Regarding “MSLTVNISYLTDMDGVLIKEGEIIPGADRFLQSLTDNNVEFMVLTNNSIFTPRDLSARLKTSGLEIPPERIWTSATATAHFLKSQVKEGTAYVVGESGLTTALHTAGWILTDANPEFVVLGETRTYSFEAITTAINLILGGARFICTNPDVTGPSPSGILPATGSVAALITAATGAEPYYIGKPNPVMMRSALNTIGAHSEHTVMIGDRMDTDVKSGLEAGLSTVLVRSGISDDAEIRRYPFRPTHVINSIADLADEGHHHHHH”, the “soluble on expression in E. coli” value is recorded as “soluble”.

As for “MSLTVSFVRIDDRMIHGQTVTRWAKEYPCDGLIAVNDAAAKNKVLIQAYKGASDKKTFVWSKEAFAAKSQKVSDSDSRYFLITKNPVDMKEILVDQGFVPGEVKEIIVGPANDRPGAVKLGNNQSITQEEADAIEAIEKAGYKVKFQLLPDVSIGYWSDFKGKFGEGHHHHHH”, the “soluble on expression in E. coli” value is recorded as “soluble”.

Take “MSLTWKHYLSAWQNADLSNEWRRELQRVEEEQERFDGYLTFGTGGMRGKMGIGTKRINLFTIRRVAKGLGDYVVANEGAEMGVAIAFDSRHHSGAFAQETAKVLAAQGINVYLSDSIRPTPALSFCVREKGAFAGVVITASHNPSIYNGFKVYDKNGCQITLGVAQEIAGYLEKITDIFTIPVRELPNPLVTPLGKEMDDAYLNALTAVVSRPDLLADYGNELRICYTPLHGAGKELVMRGLLENGFSETTIIAEQSEPDGDFPTVISPNPEEENSFDLAKKLAKEIQADIILATDPDADRLGVAVLNKQATYQILTGNQLGALLLNYILEAKTPVTGADTMINTIVTGDLGGKIAYDFGINHIQTLTGFKFIGEKIAEMEGTEKNFLFGYEESYGYLIAPFVRDKDAVQAALLTAEMALFYKKEGTTLLGKLTNLFEKFGYHKEYLHTITLDDSDGITKMIQVIDALRKEPIFMPEITVVEDFLTSKRTNFVTMEVTNIELPKENVLKFYLMDSSWFAIRPSGTEPKCKIYFQTSGETEEIATKAMNELRKRVLAVWDEGHHHHHH”: the “soluble on expression in E. coli” value is given as “soluble”.

Consider “MSLVDMVNRPYERAFEQHALANPDVLCISADLTSSCEIDKFRDNHPDQFLSMGMAEQNMMSFCGGLGLAGFRPFVHTFGVFTYRRPYDQLMASIAYPRRKVRIMGFLPGITTPGGMTHQAIEDIAVMRSMPNMTILETGDATEVESICAAADSIDGPVYCRVLRGSVPRLFDTPIKVGEMREISLGDDVLIVTAGITTEEAMRATRALEAAGVSVRHLHLHTIKPFDAGALLDHIGAVRGGVITLENHVTEGGIGSLVAEVMADNGIGKKLRRLGLKDTYAHGGSRAYLMRYYGLDALALTRGVEDLLGQPLGITEEDLAQARVEAVHSLAKAEGEGHHHHHH”, for which the “soluble on expression in E. coli” value is “not soluble”.

Consider “MSLVQFASDTDPIVQPDSLSDAGAAAPVTREAVLGAFLRAHRERLAPADVGLPPGRRRRTPGLRREEVAQLAGLSATWVTWLEQGRPVALSARALASLAAALRLSRAERAYLFELAGRRDPQQAGGEAVPAAVMASVHAIRGPAYLLDRQWNALTWNAAAAELFIGWLDGDSQERNLLRAMFVSAPLQALVEDWPHRAGRLVAEFRAHSIRHADDAPMRALIEGLMAESPAFRAAWLSQDVEDREGGRRGFRHPALGALQFEQLTLWPAAAPGLMLVMLLPAEGHHHHHH”, for which the “soluble on expression in E. coli” value was “not soluble”.

Consider “MSLVSEAHIYLQKTNAIQQSSADLISILAGSGGNRDLLLLRDHLLSIDMMKLLDKDLHLREHFSDRRRDLLSRLWSKDAPDERFQRYYLSRIEVTYDDYAQVLSITAQAYSPEMARAIAQMMVTEGEKYMNALDHKTAHDQVSYIEQQVSALGVRMVAARKAVLAYQDAHGLVSPGNAVESISAIASRLDAELSDLMTKRAALAGYLTPAAPDIVQLDSQIAAVKSQLQAERQRVAAKRGGGLNAVAEEQGRLEAEAALADDMYKTALVALETARVESTRKIKSVAVLQSANLPVYPLEPRRIYNILEGHHHHHH”, for which the “soluble on expression in E. coli” value is recorded as “not soluble”.

“MSLVSSLSFNFAPDFRPLAARMRPRTIAEYIGQAHLLGEGQPLRQALEAGRAHSMMLWGPPGTGKTTLAELIAHYSNAHVERISAVTSGVKDIRGAIEQAQAIAQSRGQRTLLFVDEVHRFNKSQQDAFLPFIEDGTVIFIGATTENPSFEINNALLSRARVYLIKRLSQDEIVHIITQALADTERGLGQRALNMPTDVLNKLAQLCDGDARKALNLLELMSDMVADGGTFTTEMLVQVAGHQVAGFDKNGDQFYDLISAVHKSIRGSAPDAALYWFCRILEGGGDPLYVARRLLAIASEDVGNADPAAMTIALNAWECFHRVGPAEGERAIAQAIVYLASAPKSNAVYTAFKAARALARETGQEAVPYHLRNAPTKLMAEMGFGAEYRYAHDEPNAYASGENYFPESLKESQFYFPTERGFEKRIKDKLVQLAQLDQASGRKREGHHHHHH”: the “soluble on expression in E. coli” value is “soluble”.

Consider “MSLVWTKTTYMGINCWKSVSDMWNYQEILSELQPSLVIEFGTRYGGSAVYFANIMRQIGQPFKVLTVDNSHKALDPRARREPDVLFVESSSTDPAIAEQIQRLKNEYPGKIFAILDSDHSMNHVLAEMKLLRPLLSAGDYLVVEDSNINGHPVLPGFGPGPYEAIEAYEDEFPNEGHHHHHH”, for which the “soluble on expression in E. coli” value was “not soluble”.

With “MSLWKSMTYYQKMIQEPSREKLLPDPLKYPYVQPPYTLVLEMKDVLVHPDWTYQTGWRFKKRPGVDKFLETLAANYEIVVFTADQGMTVFPILDALDPRGYIMYRLVRDATHFVDGHHVKNLDNLNRDLSKVIVVDWDPNSTKLHPENTLNIPRWTGNDDDAGLFDLMAMLVTIATSEVEDVRDVMTYYKSFENPLVKFRENQRLLAEQMAEREHEEKQRNLPAVQRWRPSFLEGHHHHHH”, the “soluble on expression in E. coli” value is “soluble”.

On to “MSLWLAGTWYTGQRIETESQTRLNEINAQLAAAFPEFPVRINQLKLERGFFTSQARYGVEVGKSEETGKPEATVEVDARIEHGPFAPGALARGKLMPQLAFVHAEVANTEDLKKVFEVTKGATPLWSDTVVAYNGDSTSTGGLAAIDYSGDEGKFAFSGATFDGSYQRATQAAIGSLKADSLALDASADDDGGPLLFTLDGLAVTVDSRMGKSGLSIGDSALSVKRLEVKQPEGDAHLTVADMAYAARIGEQDEFINGEISYGAGEITYNGIALGNGRAVFKAERLNAAAIKVVADEYNKAIKLQAEGKDPVPDNAEMRKLLMAQADTLLAGKPVLTLDPVQWKTAQGESVFNARVALSKPASSDLMAVDYFSQAIESIDASATLSKPMIKALMVGYLQSQEGMDAQQAAAAADQQVSSLAGMAEMMNLGKNEGDNIVSKFHYAAGTVDLNGRKMPADQLLGSILGGEGHHHHHH”, for which the “soluble on expression in E. coli” value is listed as “not soluble”.

Source of the values: the DeepSol protein solubility set.
